Here are results for two substances from publication PMC4332690.

Assay [1] deals with PIDD death domain (PIDD-DD), human, residues 778-883 (human) (UniProt Q9HB75). Put plainly: native MS; nanoESI-MS, positive ion mode; 15 μM purified complex in 50 mM ammonium acetate pH 7.8.
Assay [2] has the same target. Put plainly: SEC-MALS; as a1 but total protein loaded 1.5 mg/mL (lowest concentration; some subunit dissociation). Background: Size exclusion chromatography separates by hydrodynamic size, large species first.

Sequence of UniProt Q9HB75 (Q9HB75 778-883): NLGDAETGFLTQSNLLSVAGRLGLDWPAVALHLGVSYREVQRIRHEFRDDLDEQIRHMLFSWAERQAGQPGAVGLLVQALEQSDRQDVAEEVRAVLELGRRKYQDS

In assay [1], “RAIDD death domain (RAIDD-DD), human, residues 99-199, wild type (from UniProt P78560 99-199) (domain or fragment)” registered a population of the 5:5 complex of 28%, a population of the 6:5 complex of 43%, a population of the 7:5 complex of 29% and a stoichiometry N (RAIDD-DD per PIDD-DD (5:5)) of 1. Moreover, in assay [1], the stoichiometry N (RAIDD-DD per PIDD-DD (6:5)) was found to be 1.2 and the stoichiometry N (RAIDD-DD per PIDD-DD (7:5)) amounted to 1.4.
In assay [2], “RAIDD-DD (E188K) (from UniProt P78560 99-199) (domain or fragment)” came in with a stoichiometry N (RAIDD-DD per PIDD-DD (R4:P4)) of 1. Also, in assay [1], the population of the 5:4 complex was found to be 13%, the population of the 5:5 complex was found to be 87%, the stoichiometry N (RAIDD-DD per PIDD-DD (5:4)) was found to be 1.25 and the stoichiometry N (RAIDD-DD per PIDD-DD (5:5)) amounted to 1.
